{"source": "paper PMC6995525", "about": "“Structure of the PUB Domain from Ubiquitin Regulatory X Domain Protein 1 (UBXD1) and Its Interaction with the p97 AAA+ ATPase” (Biomolecules, 2019)", "key": {"p97-C10 peptide": {"molecular_target": "p97-C10 peptide", "experiment": "Fluorescence anisotropy, UBXD1-PUB constructs titrated to 5,6-FAM labeled p97-C10 peptide", "assay_type": "binding", "conditions": "for Kd: UBXD1-PUB (150–264) mutants titrated to 5,6-FAM labeled p97-C10 peptide (100 nM), 50 mM NaKPi, pH 6.5, 25 °C, fluorescence anisotropy ex 495/em 518 nm, fit of averaged triplicates ± standard deviation of the fit; for change in p97 binding affinity versus wild type, in words / fold change in KD / affinity versus wild type: UBXD1-PUB mutant vs wt, p97-C10, fluorescence anisotropy", "from_the_text": "N-terminal hexahistidine-tagged UBXD1-PUB (150–264) was cloned into a pET28a expression vector using the NdeI and HindIII restriction sites. UBXD1 point mutants were produced by site-directed mutagenesis following the Quikchange protocol (Agilent Technologies).\nUnlabeled p97-C10 ([…]), p97-C13 ([…]), and phosphorylated p97-C13 ([…]pYG) peptides for NMR and ITC as well as 5,6-FAM-labeled peptides for fluorescence studies were purchased from Caslo ApS (Denmark).\n(§1) Fluorescence anisotropy measurements (excitation: 495 nm; emission 518 nm) were carried out on a JASCO FP-8300 fluorescence spectrometer in 50 mM NaKPi, pH 6.5 at 25 °C, titrating PUB constructs to 5,6-FAM labeled p97-C10 peptide (100 nM). All titrations were performed in triplicate. Binding curves of the averaged data were fitted with GraphPad Prism 5.0 (GraphPad) using the quadratic binding equation for a one-site specific binding model:(3) r=r0+rmax⋅(F+x+KD)−(F+x+KD)^2−4⋅x⋅F/2⋅F, with r = anisotropy, r0 = anisotropy without protein, rmax = maximum anisotropy, F = fluorescent probe (labeled peptide or protein) concentration, x = titrant protein concentration, and KD = dissociation constant.\n(§2) Data points are shown as means ± standard deviation based on the three experiments. KD values are given as fit of the averaged data points ± standard deviation of the fit."}, "[1]": {"experiment": "CD spectroscopy, secondary structure composition", "assay_type": "physicochemical", "conditions": "0.15 mg/mL protein, 50 mM NaKPi pH 6.5, 25 °C; for α-helical content: 25 scans averaged, DichroWeb CDSSTR", "experimental": "CD spectra were recorded on a Jasco J-170 CD spectrometer in a 1 mm quartz cuvette at 25 °C averaging 25 scans. Samples consisted of 0.15 mg/mL protein in 50 mM NaKPi, pH 6.5. The secondary structure composition was analyzed using DichroWeb (http://dichroweb.cryst.bbk.ac.uk) employing the CDSSTR algorithm."}, "full-length p97 (p97-fl)": {"test_system": "full-length p97 (p97-fl)", "experiment": "Fluorescence anisotropy, UBXD1-PUB with full-length p97", "assay_type": "binding", "conditions": "isolated PUB domain of UBXD1", "experimental": "as §1, §2"}, "p97": {"test_system": "p97", "conditions": "qualitative pulldown; ref [29]; cited from earlier work", "from_the_text": "The PIM binding pockets of UBXD1-PUB and its closest homologue PNGase-PUB and the position of the p97-PIM peptide inside the pocket are almost identical, with small differences (Figure 6 and Figure 7). The side chains of the conserved UBXD1-Y181 and PNGase-Y38 are in the same position, stacking with p97-Y805 and forming a putative H-bond (3.2 or 3.1 Å, respectively) to the backbone carbonyl of p97-L804. UBDXD1-Y194 and PNGase-Y51, which represent the second conserved tyrosine of the PIM pocket, both stack with p97-Y805 and are only slightly shifted with respect to each other. However, the intr ..."}}, "note": "“Also recorded” adds a separate entry of the source.", "data": [{"molecule": "N201D: UBXD1-PUB point mutant (protein, left off: His6, N-terminal, cleaved, UBXD1-PUB point mutant) STDPVAASIMKIYTFNKDQDRVKLGVDTIAKYLDNIHLHPEEEKYRKIKLQDKVFQERINCLEGTHEFFEAIGFQKVLLPAQDQEDPEEFYVLSETTLAQPQSLERHKEQLLAAE", "values": [{"measurement": "Kd", "setting": "p97-C10 peptide", "result": "280 ± 3", "unit": "µM"}, {"measurement": "change in p97 binding affinity versus wild type, in words", "setting": "p97-C10 peptide", "result": "largest decrease in binding affinity"}]}, {"molecule": "Y194F: UBXD1-PUB point mutant (protein, left off: His6, N-terminal, cleaved, UBXD1-PUB point mutant) STDPVAASIMKIYTFNKDQDRVKLGVDTIAKYLDNIHLHPEEEKFRKIKLQNKVFQERINCLEGTHEFFEAIGFQKVLLPAQDQEDPEEFYVLSETTLAQPQSLERHKEQLLAAE", "values": [{"measurement": "Kd", "setting": "p97-C10 peptide", "result": "141 ± 2", "unit": "µM"}, {"measurement": "change in p97 binding affinity versus wild type, in words", "setting": "p97-C10 peptide", "result": "largest decrease in binding affinity; also recorded: large decrease in affinity"}, {"measurement": "α-helical content", "setting": "[1]", "result": 50, "unit": "%"}]}, {"molecule": "Y181A: UBXD1-PUB point mutant (protein, left off: His6, N-terminal, cleaved, UBXD1-PUB point mutant) STDPVAASIMKIYTFNKDQDRVKLGVDTIAKALDNIHLHPEEEKYRKIKLQNKVFQERINCLEGTHEFFEAIGFQKVLLPAQDQEDPEEFYVLSETTLAQPQSLERHKEQLLAAE", "values": [{"measurement": "Kd", "setting": "p97-C10 peptide", "result": "111 ± 2", "unit": "µM"}, {"measurement": "change in p97 binding affinity versus wild type, in words", "setting": "p97-C10 peptide", "result": "largest decrease in binding affinity"}]}, {"molecule": "Y194A: UBXD1-PUB point mutant (protein, left off: His6, N-terminal, cleaved, UBXD1-PUB point mutant) STDPVAASIMKIYTFNKDQDRVKLGVDTIAKYLDNIHLHPEEEKARKIKLQNKVFQERINCLEGTHEFFEAIGFQKVLLPAQDQEDPEEFYVLSETTLAQPQSLERHKEQLLAAE", "values": [{"measurement": "Kd", "setting": "p97-C10 peptide", "result": "53 ± 2", "unit": "µM"}, {"measurement": "change in p97 binding affinity versus wild type, in words", "setting": "p97-C10 peptide", "result": "large decrease in affinity"}, {"measurement": "α-helical content", "setting": "[1]", "result": 30, "unit": "%"}, {"measurement": "folding / secondary structure, in words", "setting": "[1]; compared with wild type", "result": "partial loss of secondary structure"}]}, {"molecule": "N201A: UBXD1-PUB point mutant (protein, left off: His6, N-terminal, cleaved, UBXD1-PUB point mutant) STDPVAASIMKIYTFNKDQDRVKLGVDTIAKYLDNIHLHPEEEKYRKIKLQAKVFQERINCLEGTHEFFEAIGFQKVLLPAQDQEDPEEFYVLSETTLAQPQSLERHKEQLLAAE", "values": [{"measurement": "Kd", "setting": "p97-C10 peptide", "result": "64.1 ± 0.8", "unit": "µM"}, {"measurement": "fold change in KD / affinity versus wild type", "setting": "p97-C10 peptide", "result": 5, "unit": "fold"}]}, {"molecule": "wild type (wt): N-terminal hexahistidine-tagged UBXD1-PUB (150–264), tag cleaved with thrombin (protein, left off: His6, N-terminal, cleaved, N-terminal hexahistidine-tagged UBXD1-PUB (150–264), tag cleaved with thrombin) STDPVAASIMKIYTFNKDQDRVKLGVDTIAKYLDNIHLHPEEEKYRKIKLQNKVFQERINCLEGTHEFFEAIGFQKVLLPAQDQEDPEEFYVLSETTLAQPQSLERHKEQLLAAE", "values": [{"measurement": "Kd", "setting": "p97-C10 peptide", "result": "13.8 ± 0.3", "unit": "µM"}, {"measurement": "affinity for full-length p97 relative to isolated PIM peptides", "setting": "full-length p97 (p97-fl)", "result": "same range as for the isolated PIM peptides"}, {"measurement": "α-helical content", "setting": "[1]", "result": 80, "unit": "%"}]}, {"molecule": "R207E: UBXD1-PUB point mutant (protein, left off: His6, N-terminal, cleaved, UBXD1-PUB point mutant) STDPVAASIMKIYTFNKDQDRVKLGVDTIAKYLDNIHLHPEEEKYRKIKLQNKVFQEEINCLEGTHEFFEAIGFQKVLLPAQDQEDPEEFYVLSETTLAQPQSLERHKEQLLAAE", "values": [{"measurement": "Kd", "setting": "p97-C10 peptide", "result": "88 ± 1", "unit": "µM"}, {"measurement": "fold change in KD / affinity versus wild type", "setting": "p97-C10 peptide", "result": "six"}, {"measurement": "fold change in KD / affinity versus wild type", "setting": "p97-C10 peptide; listed as R207 to E", "result": 6, "unit": "fold"}]}, {"molecule": "K193E: UBXD1-PUB point mutant (protein, left off: His6, N-terminal, cleaved, UBXD1-PUB point mutant) STDPVAASIMKIYTFNKDQDRVKLGVDTIAKYLDNIHLHPEEEEYRKIKLQNKVFQERINCLEGTHEFFEAIGFQKVLLPAQDQEDPEEFYVLSETTLAQPQSLERHKEQLLAAE", "values": [{"measurement": "Kd", "setting": "p97-C10 peptide", "result": "17.7 ± 0.4", "unit": "µM"}, {"measurement": "change in p97 binding affinity versus wild type, in words", "setting": "p97-C10 peptide", "result": "do not show a decreased affinity"}]}, {"molecule": "Q200A: UBXD1-PUB point mutant (protein, left off: His6, N-terminal, cleaved, UBXD1-PUB point mutant) STDPVAASIMKIYTFNKDQDRVKLGVDTIAKYLDNIHLHPEEEKYRKIKLANKVFQERINCLEGTHEFFEAIGFQKVLLPAQDQEDPEEFYVLSETTLAQPQSLERHKEQLLAAE", "values": [{"measurement": "Kd", "setting": "p97-C10 peptide", "result": "8.3 ± 0.3", "unit": "µM"}, {"measurement": "change in p97 binding affinity versus wild type, in words", "setting": "p97-C10 peptide", "result": "do not show a decreased affinity"}]}, {"molecule": "PNGase K50A, Y51A double mutant: PNGase double mutant (protein, UniProt Q96IV0 2-654, looked up, variant K50A Y51A) Peptide-N(4)-(N-acetyl-beta-gl …: AAAALGSSSGSASPAVAELCQNTPETFLEASKLLLTYADNILRNPNDEAARSIRIGNTAFSTRLLPVRGAVECLFEMGFEEGETHLIFPKKASVEQLQKIRDLIAIERSSRLDGSNKSHKVKSSQQPAASTQLPTTPSSNPSGLNQHTRNRQGQSSDPPSASTVAADSAILEVLQSNIQHVLVYENPALQEKALACIPVQELKRKSQEKLSRARKLDKGINISDEDFLLLELLHWFKEEFFHWVNNVLCSKCGGQTRSRDRSLLPSDDELKWGAKEVEDHYCDACQFSNRFPRYNNPEKLLETRCGRCGEWANCFTLCCRAVGFEARYVWDYTDHVWTEVYSPSQQRWLHCDACEDVCDKPLLYEIGWGKKLSYVIAFSKDEVVDVTWRYSCKHEEVIARRTKVKEALLRDTINGLNKQRQLFLSENRRKELLQRIIVELVEFISPKTPKPGELGGRISGSVAWRVARGEMGLQRKETLFIPCENEKISKQLHLCYNIVKDRYVRVSNNNQTISGWENGVWKMESIFRKVETDWHMVYLARKEGSSFAYISWKFECGSVGLKVDSISIRTSSQTFQTGTVEWKLRSDTAQVELTGDNSLHSYADFSGATEVILEAELSRGDGDVAWQHTQLFRQSLNDHEENCLEIIIKFSDL", "values": [{"measurement": "binding in pulldown assay", "setting": "p97", "result": "did not show impaired binding"}]}, {"molecule": "K198E: UBXD1-PUB point mutant (protein, left off: His6, N-terminal, cleaved, UBXD1-PUB point mutant) STDPVAASIMKIYTFNKDQDRVKLGVDTIAKYLDNIHLHPEEEKYRKIELQNKVFQERINCLEGTHEFFEAIGFQKVLLPAQDQEDPEEFYVLSETTLAQPQSLERHKEQLLAAE", "values": [{"measurement": "Kd", "setting": "p97-C10 peptide", "result": "49.3 ± 0.8", "unit": "µM"}]}, {"molecule": "V203A: UBXD1-PUB point mutant (protein, left off: His6, N-terminal, cleaved, UBXD1-PUB point mutant) STDPVAASIMKIYTFNKDQDRVKLGVDTIAKYLDNIHLHPEEEKYRKIKLQNKAFQERINCLEGTHEFFEAIGFQKVLLPAQDQEDPEEFYVLSETTLAQPQSLERHKEQLLAAE", "values": [{"measurement": "Kd", "setting": "p97-C10 peptide", "result": "25.3 ± 0.5", "unit": "µM"}]}, {"molecule": "E206R: UBXD1-PUB point mutant (protein, left off: His6, N-terminal, cleaved, UBXD1-PUB point mutant) STDPVAASIMKIYTFNKDQDRVKLGVDTIAKYLDNIHLHPEEEKYRKIKLQNKVFQRRINCLEGTHEFFEAIGFQKVLLPAQDQEDPEEFYVLSETTLAQPQSLERHKEQLLAAE", "values": [{"measurement": "Kd", "setting": "p97-C10 peptide", "result": "39.4 ± 0.9", "unit": "µM"}]}, {"molecule": "Y181F: UBXD1-PUB point mutant (protein, left off: His6, N-terminal, cleaved, UBXD1-PUB point mutant) STDPVAASIMKIYTFNKDQDRVKLGVDTIAKFLDNIHLHPEEEKYRKIKLQNKVFQERINCLEGTHEFFEAIGFQKVLLPAQDQEDPEEFYVLSETTLAQPQSLERHKEQLLAAE", "values": [{"measurement": "Kd", "setting": "p97-C10 peptide", "result": "28.4 ± 0.6", "unit": "µM"}]}, {"molecule": "N184A: UBXD1-PUB point mutant (protein, left off: His6, N-terminal, cleaved, UBXD1-PUB point mutant) STDPVAASIMKIYTFNKDQDRVKLGVDTIAKYLDAIHLHPEEEKYRKIKLQNKVFQERINCLEGTHEFFEAIGFQKVLLPAQDQEDPEEFYVLSETTLAQPQSLERHKEQLLAAE", "values": [{"measurement": "Kd", "setting": "p97-C10 peptide", "result": "28.7 ± 0.5", "unit": "µM"}]}, {"molecule": "N184D: UBXD1-PUB point mutant (protein, left off: His6, N-terminal, cleaved, UBXD1-PUB point mutant) STDPVAASIMKIYTFNKDQDRVKLGVDTIAKYLDDIHLHPEEEKYRKIKLQNKVFQERINCLEGTHEFFEAIGFQKVLLPAQDQEDPEEFYVLSETTLAQPQSLERHKEQLLAAE", "values": [{"measurement": "Kd", "setting": "p97-C10 peptide", "result": "80 ± 2", "unit": "µM"}]}]}
